Assays:
HeLa Kyoto [1] = experiment: solubility in G1/S (NP-40 vs SDS abundance) (log2 ratio); higher = more soluble; conditions: cell cycle stage: G1/S
HeLa Kyoto [2] = experiment: melting temperature (median over replicates), in situ; higher = more thermally stable
HeLa Kyoto [3] = experiment: solubility change mitosis vs G1/S (difference of NP-40 vs SDS log2 ratios) (log2 ratio difference); higher = more soluble in mitosis
HeLa Kyoto [4] = experiment: thermal stability score vs G1/S (z-score of summed log2 fold changes over temperatures); higher = more thermally stable than in G1/S
[5] = cell cycle stage: early G1 (4.5 h after nocodazole release)
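Wherever melting temperature (median over replicates), in situ is given: HeLa Kyoto cells synchronized by double thymidine or nocodazole block, proteins quantified by TMT10plex mass spectrometry, three independent biological replicates.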
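Wherever solubility change mitosis vs G1/S (difference of NP-40 vs SDS log2 ratios) is given: synchronized HeLa Kyoto cells (double thymidine block for G1/S, nocodazole release for mitosis), protein amounts in NP-40 versus SDS lysates quantified by mass spectrometry, three biological replicates.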
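Wherever solubility in G1/S (NP-40 vs SDS abundance) is given: HeLa Kyoto cells arrested at G1/S by double thymidine block, proteins quantified by TMT10plex mass spectrometry in mild NP-40 versus SDS extracts, three biological replicates.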
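Wherever thermal stability score vs G1/S (z-score of summed log2 fold changes over temperatures) is given: synchronized HeLa Kyoto cells, proteins quantified by TMT10plex mass spectrometry, three biological replicates, mitosis taken 0.5 h after nocodazole release, G1/S directly after double thymidine block.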

| Sequence | solubility in G1/S (log2) (HeLa Kyoto [1]) | melting temperature (HeLa Kyoto [2]; cell cycle stage: G1/S) [°C] | melting temperature (HeLa Kyoto [2]; cell cycle stage: mitosis) [°C] | solubility change mitosis (log2) (HeLa Kyoto [3]) | thermal stability score (HeLa Kyoto [4]; [5]) | thermal stability score (HeLa Kyoto [4]; cell cycle stage: mitosis) |
| --- | --- | --- | --- | --- | --- | --- |
| MASCASIDIEDATQHLRDILKLDRPAGGPSAESPRPSSAYNGDLNGLLVPDPLCSGDSTSANKTGLRTMPPINLQEKQVICLSGDDSSTCIGILAKEVEIVASSDSSISSKARGSNKVKIQPVAKYDWEQKYYYGNLIAVSNSFLAYAIRAANNGSAMVRVISVSTSERTLLKGFTGSVADLAFAHLNSPQLACLDEAGNLFVWRLALVNGKIQEEILVHIRQPEGTPLNHFRRIIWCPFIPEESEDCCEESSPTVALLHEDRAEVWDLDMLRSSHSTWPVDVSQIKQGFIVVKGHSTCLSEGALSPDGTVLATASHDGYVKFWQIYIEGQDEPRCLHEWKPHDGRPLSCLLFCDNHKKQDPDVPFWRFLITGADQNRELKMWCTVSWTCLQTIRFSPDIFSSVSVPPSLKVCLDLSAEYLILSDVQRKVLYVMELLQNQEEGHACFSSISEFLLTHPVLSFGIQVVSRCRLRHTEVLPAEEENDSLGADGTHGAGAMESAAGVLIKLFCVHTKALQDVQIRFQPQLNPDVVAPLPTHTAHEDFTFGESRPELGSEGLGSAAHGSQPDLRRIVELPAPADFLSLSSETKPKLMTPDAFMTPSASLQQITASPSSSSSGSSSSSSSSSSSLTAVSAMSSTSAVDPSLTRPPEELTLSPKLQLDGSLTMSSSGSLQASPRGLLPGLLPAPADKLTPKGPGQVPTATSALSLELQEVEPLGLPQASPSRTRSPDVISSASTALSQDIPEIASEALSRGFGSSAPEGLEPDSMASAASALHLLSPRPRPGPELGPQLGLDGGPGDGDRHNTPSLLEAALTQEASTPDSQVWPTAPDITRETCSTLAESPRNGLQEKHKSLAFHRPPYHLLQQRDSQDASAEQSDHDDEVASLASASGGFGTKVPAPRLPAKDWKTKGSPRTSPKLKRKSKKDDGDAAMGSRLTEHQVAEPPEDWPALIWQQQRELAELRHSQEELLQRLCTQLEGLQSTVTGHVERALETRHEQEQRRLERALAEGQQRGGQLQEQLTQQLSQALSSAVAGRLERSIRDEIKKTVPPCVSRSLEPMAGQLSNSVATKLTAVEGSMKENISKLLKSKNLTDAIARAAADTLQGPMQAAYREAFQSVVLPAFEKSCQAMFQQINDSFRLGTQEYLQQLESHMKSRKAREQEAREPVLAQLRGLVSTLQSATEQMAATVAGSVRAEVQHQLHVAVGSLQESILAQVQRIVKGEVSVALKEQQAAVTSSIMQAMRSAAGTPVPSAHLDCQAQQAHILQLLQQGHLNQAFQQALTAADLNLVLYVCETVDPAQVFGQPPCPLSQPVLLSLIQQLASDLGTRTDLKLSYLEEAVMHLDHSDPITRDHMGSVMAQVRQKLFQFLQAEPHNSLGKAARRLSLMLHGLVTPSLP [EDC4] | 0.013 | 49.6 | 50.1 | -0.158 | 0.116 | 2.4 |
| MSSKKNRKRLNQSAENGSSLPSAASSCAEARAPSAGSDFAATSGTLTVTNLLEKVDDKIPKTFQNSLIHLGLNTMKSANICIGRPVLLTSLNGKQEVYTAWPMAGFPGGKVGLSEMAQKNVGVRPGDAIQVQPLVGAVLQAEEMDVALSDKDMEINEEELTGCILRKLDGKIVLPGNFLYCTFYGRPYKLQVLRVKGADGMILGGPQSDSDTDAQRMAFEQSSMETSSLELSLQLSQLDLEDTQIPTSRSTPYKPIDDRITNKASDVLLDVTQSPGDGSGLMLEEVTGLKCNFESAREGNEQLTEEERLLKFSIGAKCNTDTFYFISSTTRVNFTEIDKNSKEQDNQFKVTYDMIGGLSSQLKAIREIIELPLKQPELFKSYGIPAPRGVLLYGPPGTGKTMIARAVANEVGAYVSVINGPEIISKFYGETEAKLRQIFAEATLRHPSIIFIDELDALCPKREGAQNEVEKRVVASLLTLMDGIGSEVSEGQVLVLGATNRPHALDAALRRPGRFDKEIEIGVPNAQDRLDILQKLLRRVPHLLTEAELLQLANSAHGYVGADLKVLCNEAGLCALRRILKKQPNLPDVKVAGLVKITLKDFLQAMNDIRPSAMREIAIDVPNVSWSDIGGLESIKLKLEQAVEWPLKHPESFIRMGIQPPKGVLLYGPPGCSKTMIAKALANESGLNFLAIKGPELMNKYVGESERAVRETFRKARAVAPSIIFFDELDALAVERGSSLGAGNVADRVLAQLLTEMDGIEQLKDVTILAATNRPDRIDKALMRPGRIDRIIYVPLPDAATRREIFKLQFHSMPVSNEVDLDELILQTDAYSGAEIVAVCREAALLALEEDIQANLIMKRHFTQALSTVTPRIPESLRRFYEDYQEKSGLHTL [SPATA5] | -0.296 | 53 | 51.7 | 0.184 | 1.78 | -0.413 |
| MATATIALQVNGQQGGGSEPAAAAAVVAAGDKWKPPQGTDSIKMENGQSTAAKLGLPPLTPEQQEALQKAKKYAMEQSIKSVLVKQTIAHQQQQLTNLQMAAVTMGFGDPLSPLQSMAAQRQRALAIMCRVYVGSIYYELGEDTIRQAFAPFGPIKSIDMSWDSVTMKHKGFAFVEYEVPEAAQLALEQMNSVMLGGRNIKVGRPSNIGQAQPIIDQLAEEARAFNRIYVASVHQDLSDDDIKSVFEAFGKIKSCTLARDPTTGKHKGYGFIEYEKAQSSQDAVSSMNLFDLGGQYLRVGKAVTPPMPLLTPATPGGLPPAAAVAAAAATAKITAQEAVAGAAVLGTLGTPGLVSPALTLAQPLGTLPQAVMAAQAPGVITGVTPARPPIPVTIPSVGVVNPILASPPTLGLLEPKKEKEEEELFPESERPEMLSEQEHMSISGSSARHMVMQKLLRKQESTVMVLRNMVDPKDIDDDLEGEVTEECGKFGAVNRVIIYQEKQGEEEDAEIIVKIFVEFSIASETHKAIQALNGRWFAGRKVVAEVYDQERFDNSDLSA [PUF60] | 0.0524 | 49.1 | 50.6 | 0.0253 | 1.71 | 5.96 |
| MANLLKTVVTGCSCPLLSNLGSCKGLRVKKDFLRTFYTHQELWCKAPVKPGIPYKQLTVGVPKEIFQNEKRVALSPAGVQNLVKQGFNVVVESGAGEASKFSDDHYRVAGAQIQGAKEVLASDLVVKVRAPMVNPTLGVHEADLLKTSGTLISFIYPAQNPELLNKLSQRKTTVLAMDQVPRVTIAQGYDALSSMANIAGYKAVVLAANHFGRFFTGQITAAGKVPPAKILIVGGGVAGLASAGAAKSMGAIVRGFDTRAAALEQFKSLGAEPLEVDLKESGEGQGGYAKEMSKEFIEAEMKLFAQQCKEVDILISTALIPGKKAPVLFNKEMIESMKEGSVVVDLAAEAGGNFETTKPGELYIHKGITHIGYTDLPSRMATQASTLYSNNITKLLKAISPDKDNFYFDVKDDFDFGTMGHVIRGTVVMKDGKVIFPAPTPKNIPQGAPVKQKTVAELEAEKAATITPFRKTMSTASAYTAGLTGILGLGIAAPNLAFSQMVTTFGLAGIVGYHTVWGVTPALHSPLMSVTNAISGLTAVGGLALMGGHLYPSTTSQGLAALAAFISSVNIAGGFLVTQRMLDMFKRPTDPPEYNYLYLLPAGTFVGGYLAALYSGYNIEQIMYLGSGLCCVGALAGLSTQGTARLGNALGMIGVAGGLAATLGVLKPGPELLAQMSGAMALGGTIGLTIAKRIQISDLPQLVAAFHSLVGLAAVLTCIAEYIIEYPHFATDAAANLTKIVAYLGTYIGGVTFSGSLIAYGKLQGLLKSAPLLLPGRHLLNAGLLAASVGGIIPFMVDPSFTTGITCLGSVSALSAVMGVTLTAAIGGADMPVVITVLNSYSGWALCAEGFLLNNNLLTIVGALIGSSGAILSYIMCVAMNRSLANVILGGYGTTSTAGGKPMEISGTHTEINLDNAIDMIREANSIIITPGYGLCAAKAQYPIADLVKMLTEQGKKVRFGIHPVAGRMPGQLNVLLAEAGVPYDIVLEMDEINHDFPDTDLVLVIGANDTVNSAAQEDPNSIIAGMPVLEVWKSKQVIVMKRSLGVGYAAVDNPIFYKPNTAMLLGDAKKTCDALQAKVRESYQK [NNT] | 0.11 | 53.4 | 53.4 | -0.0884 | -1.09 | -1.47 |
| MLLSVPLLLGLLGLAVAEPAVYFKEQFLDGDGWTSRWIESKHKSDFGKFVLSSGKFYGDEEKDKGLQTSQDARFYALSASFEPFSNKGQTLVVQFTVKHEQNIDCGGGYVKLFPNSLDQTDMHGDSEYNIMFGPDICGPGTKKVHVIFNYKGKNVLINKDIRCKDDEFTHLYTLIVRPDNTYEVKIDNSQVESGSLEDDWDFLPPKKIKDPDASKPEDWDERAKIDDPTDSKPEDWDKPEHIPDPDAKKPEDWDEEMDGEWEPPVIQNPEYKGEWKPRQIDNPDYKGTWIHPEIDNPEYSPDPSIYAYDNFGVLGLDLWQVKSGTIFDNFLITNDEAYAEEFGNETWGVTKAAEKQMKDKQDEEQRLKEEEEDKKRKEEEEAEDKEDDEDKDEDEEDEEDKEEDEEEDVPGQAKDEL [CALR] | 0.0117 | 54.6 | 54.9 | 0.0133 | 3.64 | 3.96 |

From the supplement of paper PMC5998384
